Test results reported in article doi:10.1101/506113 (bioRxiv, 2018).

Molecular target: LgB-NIX (NIX with Large BiT at its N-terminal end) (UniProt O60238 1-219)
Experiment: split reporter

LgB-NIX (NIX with Large BiT at its N-terminal end), sequence (O60238 whole entry): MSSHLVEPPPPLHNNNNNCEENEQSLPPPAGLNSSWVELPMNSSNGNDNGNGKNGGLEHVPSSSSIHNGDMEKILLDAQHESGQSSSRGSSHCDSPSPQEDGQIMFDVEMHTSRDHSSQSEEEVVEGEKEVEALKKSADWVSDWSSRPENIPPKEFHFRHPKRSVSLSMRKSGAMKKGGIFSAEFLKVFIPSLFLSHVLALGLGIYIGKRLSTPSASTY

B1: vIRF-1-SmB (vIRF-1 with Small BiT at its C-terminal end) (natural protein)
chain: MDPGQRPNPFGAPGAIPKKPCLSQGSPGTSGSGAPCDEPSRSESPGEGPSGTGGSAAAGDITRQAVVAAITEWSRTRQLRISTGASEGKASIKDWIVCQVNSGKFPGVEWEDEERTRFRIPVTPLADPCFEWRRDGELGVVYIRERGNMPVDASFKGTRGRRRMLAALRRTRGLQEIGKGISQDGHHFLVFRVRKPEEEQCVECGVVAGAVHDFNNMARLLQEGFFSPGQCLPGEIVTPVPSCTTAEGQEAVIDWGRLFIRMYYNGEQVHELLTTSQSGCRISSALRRDPAVHYCAVGSPGQVWLPNVPNLACEIAKRELCDTLDACAKGILLTSSCNGIFCVCYHNGPVHFIGNTVPPDSGPLLLPQGKPTRIFNPNTFLVGLANSPLPAPSHVTCPLVKLWLGKPVAVGKLEPHAPSPRDFAARCSNFSDACVVLEIMPKPLWDAMQ
**Q.** With B1 as the binder, how does the “fold luminescence over HT-SmB with LgB-NIX” value read?
**A.** 10 fold
